Experimental data: PMC3785480
pKd: −log10 of the molar value.

How the values were obtained:
[1] = target: recombinant BB0347 (Borrelia burgdorferi); assay: ELISA
[2] = target: recombinant BB0347 (Borrelia burgdorferi); assay: ELISA; Figure 5, rBB0347 with full-length Fn; which protein was coated is not told; KD = concentration of added protein at half-maximal binding, assuming saturation

Substance: human fibronectin (from UniProt P02751 32-2477) (natural protein)
- percent reduction of binding with 50 µM heparin [1]: 40%
- pKd [2]: 6.70
